Results from US20120034215A1 (Daiichi Sankyo, published 2012).
Positions count from the first letter of the chain named.

B1: MOR07919 (human IgG1) (antibody, V domains shown)
VH: QVQLVQSGAEVKKPGESLKISCKGSGYSFTNYWISWVRQMPGKGLEWMGFIYPDDSYTRYSPSFQGQVTISADKSISTAYLQWSSLKASDTAMYYCARFSYRHYLDMDDHWGQGTLVTVSS
VL: DIELTQPPSVSVAPGQTARISCSGDSLGSKYVHWYQQKPGQAPVLVIYRDNKRPSGIPERFSGSNSGNTATLTISGTQAEDEADYYCQSYDATEFTYVFGGGTKLTVLG
B2: MOR07919 Fab (Fab, V domains shown)
VH: B1 VH
VL: B1 VL
notes: carries two C-terminal tags (FLAG and Strep-tag II); also called Fab MOR07919
B3: MOR07923 Fab (Fab, V domains shown)
VH: QVQLVESGGGLVQPGGSLRLSCAASGFTFNSYSMSWVRQAPGKGLEWVSYISSRSSTTYYADSVKGRFTISRDNSKNTLYLQMNSLRAEDTAVYYCARGYFHGMDYWGQGTLVTVSS
VL: DIVLTQSPATLSLSPGERATLSCRASQSVSFDYLGWYQQKPGQAPRLLIYGASNRATGVPARFSGSGSGTDFTLTISSLEPEDFATYYCFQYLIVPFTFGQGTKVEIKR
notes: carries two C-terminal tags (FLAG and Strep-tag II); also called Fab MOR07923
B4: MOR07692 Fab (Fab, V domains shown)
VH: B3 VH
VL: B3 VL with F90Q, L93Y, I94N, V95M, F97Y
notes: carries two C-terminal tags (FLAG and Strep-tag II); also called Fab MOR07692
B5: MOR07925 Fab (Fab, V domains shown)
VH: B3 VH
VL: B3 VL with F90L, L93F, I94N, V95P, F97H
notes: carries two C-terminal tags (FLAG and Strep-tag II); also called Fab MOR07925
B6: MOR07924 Fab (Fab, V domains shown)
VH: B3 VH
VL: B3 VL with F90Q, L93N, V95N
notes: carries two C-terminal tags (FLAG and Strep-tag II); also called Fab MOR07924
B7: MOR07926 Fab (Fab, V domains shown)
VH: B3 VH
VL: B3 VL with Y92A, V95M
notes: carries two C-terminal tags (FLAG and Strep-tag II); also called Fab MOR07926

Tests used:
[1] = target: MST1R on cells (293alpha cells transfected with pcDNA-DEST40 MST1R; endogenous on PC3, T-47D and BxPC-3 cells) (human, UniProt Q04912 25-1400); test: cell-based or functional assay
[2] = target: T1, cynomolgus monkey MST1R with N-terminal Flag tag, expressed on HEK293T cells (cynomolgus monkey, UniProt Q04912 27-1400 (human entry)); test: flow cytometry on transfected HEK293T cells, 2 ug/ml IgG1
T1 construct: ORF cloned excluding the signal peptide region; also called cynomolgus MST1R; not shown: N-terminal Flag tag from vector pFLAG-myc-CMV-19 (Sigma)
T1 chain: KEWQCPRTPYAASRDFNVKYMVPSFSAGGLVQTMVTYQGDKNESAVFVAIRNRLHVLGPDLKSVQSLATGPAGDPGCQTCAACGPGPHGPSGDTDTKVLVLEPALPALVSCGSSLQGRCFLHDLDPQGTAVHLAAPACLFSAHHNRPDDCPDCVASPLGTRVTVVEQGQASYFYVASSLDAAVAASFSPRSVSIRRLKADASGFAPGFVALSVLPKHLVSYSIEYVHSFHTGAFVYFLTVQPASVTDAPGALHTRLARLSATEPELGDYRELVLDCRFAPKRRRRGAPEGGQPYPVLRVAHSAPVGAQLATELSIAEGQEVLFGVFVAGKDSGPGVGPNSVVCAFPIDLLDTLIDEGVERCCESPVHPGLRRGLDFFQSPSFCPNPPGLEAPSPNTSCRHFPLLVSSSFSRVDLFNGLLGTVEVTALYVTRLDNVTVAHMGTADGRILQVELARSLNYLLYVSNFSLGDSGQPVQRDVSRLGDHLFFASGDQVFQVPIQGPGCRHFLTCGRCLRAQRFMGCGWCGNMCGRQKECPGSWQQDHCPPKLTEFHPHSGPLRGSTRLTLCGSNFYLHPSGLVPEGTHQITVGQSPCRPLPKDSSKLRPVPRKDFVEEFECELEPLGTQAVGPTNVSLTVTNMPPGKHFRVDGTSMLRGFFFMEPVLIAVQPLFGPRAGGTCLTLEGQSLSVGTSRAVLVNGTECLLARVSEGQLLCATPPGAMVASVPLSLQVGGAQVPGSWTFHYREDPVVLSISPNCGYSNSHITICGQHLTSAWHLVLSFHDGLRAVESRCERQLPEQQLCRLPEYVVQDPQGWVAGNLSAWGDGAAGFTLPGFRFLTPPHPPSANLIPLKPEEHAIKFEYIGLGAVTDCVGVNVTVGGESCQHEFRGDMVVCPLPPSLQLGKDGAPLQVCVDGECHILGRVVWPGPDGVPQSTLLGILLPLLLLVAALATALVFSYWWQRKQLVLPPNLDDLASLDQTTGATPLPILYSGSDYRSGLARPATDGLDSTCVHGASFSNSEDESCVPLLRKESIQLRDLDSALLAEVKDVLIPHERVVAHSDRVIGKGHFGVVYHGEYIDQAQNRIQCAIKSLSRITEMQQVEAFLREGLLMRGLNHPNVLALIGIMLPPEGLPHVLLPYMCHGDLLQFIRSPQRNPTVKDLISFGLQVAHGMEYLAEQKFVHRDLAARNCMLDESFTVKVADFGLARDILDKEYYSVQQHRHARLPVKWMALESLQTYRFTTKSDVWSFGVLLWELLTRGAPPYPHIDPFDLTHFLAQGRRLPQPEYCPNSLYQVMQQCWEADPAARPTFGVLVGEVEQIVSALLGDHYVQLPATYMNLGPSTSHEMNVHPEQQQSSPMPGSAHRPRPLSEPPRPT
Experimental: Cells (5×10⁵ cells/well) were incubated with Fab or IgG antibodies at the indicated concentrations in 50 μl FACS buffer (PBS, 5% FCS) for 60 min at 4° C. in round bottom 96-well culture plates (Corning). Cells were washed twice and then incubated with Fluorescein Isothiocyanate (FITC) conjugated detection antibody for 30 min at 4° C. Cells were washed again, resuspended in 0.3 ml FACS buffer and then analyzed by flow cytometry in a Cytomics FC500 (Beckman Coulter, Inc.). Data were analysed via FlowJo software (Tomy digital biology Co., Ltd.). Polyclonal goat anti-hMSP R IgG (R&D systems) or anti-FLAG M2 antibody (Sigma) was used as a positive control and MOR03207 (anti-lysozyme) antibody was used as a negative control.
FACS-analysis of MST1R ortholog-expressing cells: Human MST1R (cDNA nucleotide sequence is shown as GenBank Accession No: NM_{—}002447.2), cynomolgus monkey MST1R and mouse MST1R (cDNA nucleotide sequence is shown as GeneBank Accession No: NM_{—}009074.1) expression vector containing N-terminal Flag tag (pFLAG-myc-CMV-19, Sigma) were constructed. cDNA encoding cynomolgus monkey MST1R was amplified by PCR using cynomolgus monkey stomach cDNA as a template with forward and reverse primers having nucleotide sequences of SEQ ID NO: 34 and 35, respectively. By sequencing analysis of PCR product, the cynomolgus MST1R ORF nucleotide sequence was identified as shown in SEQ ID NO: 36. The corresponding amino acid sequence was shown in SEQ ID NO: 37. Then human, cynomolgus monkey and mouse MST1R ORF cDNA, excluding signal peptide regions, were amplified using respective forward and reverse primers having nucleotide sequences of SEQ ID NO: 38 and 39 (human), 40 and 41 (cynomolgus monkey), and 42 and 43 (mouse) with appropriate cloning sites and then cloned into pFLAG-myc-CMV-19. An amplified human MST1R fragment encodes amino acids corresponding to GenBank Accession No: NP_{—}002438.2 (SEQ ID NO: 45). A Mouse MST1R fragment encodes amino acids corresponding to GenBank Accession No: NP_{—}033100.1 (SEQ ID NO: 47) except for those amino acid differences at positions: 688 (Leu to Pro), 713 (Ile to Val), 714 (Ala to Gly) and 719 (Ala to Val). These expression vectors were transfected into HEK293T cells. For FACS-analysis, cells were incubated with 2 μg/ml primary antibodies followed by incubation with FITC-labeled secondary antibody as described above.

[3] = target: T2, recombinant MST1R-Fc fusion protein (containing 25-571 amino acid sequence of human MST1R, R&D) (human, UniProt Q04912 25-571); test: SPR (Biacore 3000), Fab over directly immobilized MST1R-Fc
T2 construct: Bought from R&D systems; also called immobilized recombinant human MST1R; not shown: Fc part of the bought fusion protein (R&D systems)
T2 chain: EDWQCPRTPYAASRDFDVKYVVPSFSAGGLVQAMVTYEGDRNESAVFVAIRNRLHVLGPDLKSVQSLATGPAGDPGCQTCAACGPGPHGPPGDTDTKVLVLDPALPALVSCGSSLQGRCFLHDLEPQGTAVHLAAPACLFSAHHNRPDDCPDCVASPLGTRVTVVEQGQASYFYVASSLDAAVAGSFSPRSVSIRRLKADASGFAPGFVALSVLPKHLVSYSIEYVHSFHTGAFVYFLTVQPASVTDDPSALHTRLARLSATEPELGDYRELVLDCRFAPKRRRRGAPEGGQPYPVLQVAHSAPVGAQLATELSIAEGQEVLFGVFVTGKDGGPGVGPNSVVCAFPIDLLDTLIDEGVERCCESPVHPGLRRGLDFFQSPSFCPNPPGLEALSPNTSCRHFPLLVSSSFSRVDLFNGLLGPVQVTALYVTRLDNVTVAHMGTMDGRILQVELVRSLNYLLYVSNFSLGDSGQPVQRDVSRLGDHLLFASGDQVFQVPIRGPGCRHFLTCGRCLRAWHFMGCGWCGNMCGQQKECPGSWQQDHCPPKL
Experimental: With reference to Table 1, the affinity of MOR X antibodies was measured by surface plasmon resonance (Biacore) on immobilized recombinant human MST1R. The Biacore studies were performed on directly immobilized antigen.
The kinetic constants kₒₙ and koff were determined with serial dilutions of the respective Fab binding to covalently immobilized MST1R-Fc fusion protein (R&D systems) using the BIAcore 3000 instrument (Biacore). For covalent antigen immobilization standard EDC-NHS amine coupling chemistry was used. For direct coupling of MST1R-Fc fusion protein CM5 sensor chips (Biacore) were coated with ˜600-700 RU in 10 mM acetate buffer, pH 4.5. For the reference flow cell a respective amount of HSA (human serum albumin) was used. Kinetic measurements were done in PBS (136 mM NaCl, 2.7 mM KCl, 10 mM Na₂HPO₄, 1.76 mM KH₂PO₄ pH 7.4) at a flow rate of 20 μl/min using Fab concentration range from 15.6-500 nM. Injection time for each concentration was 1 min, followed by 3 min dissociation phase. For regeneration […] 10 mM HCl was used. All sensograms were globally fitted using BIA evaluation software 3.2 (Biacore).

[4] = target: T2, recombinant MST1R-Fc fusion protein …; test: Solution Equilibrium Titration (SET, ECL based), Fab
[5] = target: T2, recombinant MST1R-Fc fusion protein …; test: Solution Equilibrium Titration (SET, ECL based), Fab; SET (Fab), in solution; not Biacore on immobilized antigen

Row | Binder | Reporter assay IC50 (ng/ml); Elk1 luciferase reporter gene assay in the presence of 100 ng/ml MSP [1] [ng/mL] | binding result [2] | Kd [3] [nM] | Kd [4] [nM] | Kd [5] [nM]
1 | B1 | 87.6 | binds |  |  | 
2 | B2 |  |  | 0.98 | 0.27 | 
3 | B3 |  |  | 0.07 | 0.02 | 
4 | B4 |  |  | 0.8 |  | 0.25
5 | B5 |  |  | 0.02 | 0.01 | 
6 | B6 |  |  | 0.2 | 0.03 | 
7 | B7 |  |  | 0.13 | 0.04 | 
